Experimental data taken from paper PMC4515032.

Biological target: mCherry-tagged mutant Htt exon 1 (HttQ91)
Assay: FRET or BRET

YFP-tagged wild-type Htt exon 1 (HttQ25) (domain or fragment)
mean FRET efficiency: 16.3%
